B1: RORa: RAR-related Orphan Receptor α (NR1F1), cDNA driver (protein, UniProt P35398 1-523, looked up)
Nuclear receptor ROR-alpha: MESAPAAPDPAASEPGSSGADAAAGSRETPLNQESARKSEPPAPVRRQSYSSTSRGISVTKKTHTSQIEIIPCKICGDKSSGIHYGVITCEGCKGFFRRSQQSNATYSCPRQKNCLIDRTSRNRCQHCRLQKCLAVGMSRDAVKFGRMSKKQRDSLYAEVQKHRMQQQQRDHQQQPGEAEPLTPTYNISANGLTELHDDLSNYIDGHTPEGSKADSAVSSFYLDIQPSPDQSGLDINGIKPEPICDYTPASGFFPYCSFTNGETSPTVSMAELEHLAQNISKSHLETCQYLREELQQITWQTFLQEEIENYQNKQREVMWQLCAIKITEAIQYVVEFAKRIDGFMELCQNDQIVLLKAGSLEVVFIRMCRAFDSQNNTVYFDGKYASPDVFKSLGCEDFISFVFEFGKSLCSMHLTEDEIALFSAFVLMSADRSWLQEKVKIEKLQQKIQLALQHVLQKNHREDGILTKLICKVSTLRALCGRHTEKLMAFKAIYPDIVRLHFPPLYKELFTSEFEPAMQIDG
B2: HNF4a: Hepatocyte Nuclear Factor α (NR2A1), cDNA driver (protein, UniProt P41235 1-474, looked up)
Hepatocyte nuclear factor …: MRLSKTLVDMDMADYSAALDPAYTTLEFENVQVLTMGNDTSPSEGTNLNAPNSLGVSALCAICGDRATGKHYGASSCDGCKGFFRRSVRKNHMYSCRFSRQCVVDKDKRNQCRYCRLKKCFRAGMKKEAVQNERDRISTRRSSYEDSSLPSINALLQAEVLSRQITSPVSGINGDIRAKKIASIADVCESMKEQLLVLVEWAKYIPAFCELPLDDQVALLRAHAGEHLLLGATKRSMVFKDVLLLGNDYIVPRHCPELAEMSRVSIRILDELVLPFQELQIDDNEYAYLKAIIFFDPDAKGLSDPGKIKRLRSQVQVSLEDYINDRQYDSRGRFGELLLLLPTLQSITWQMIEQIQFIKLFGMAKIDNLLQEMLLGGSPSDAPHAHHPLHPHLMQEHMGTNVIVANTMPTHLSNGQMCEWPRPRGQAATPETPQPSPPGGSGSEPYKLLPGAVATIVKPLSAIPQPTITKQEVI
B3: LXRb: Liver X Receptor β (NR1H2), cDNA driver (protein, UniProt P55055 1-460, looked up)
Oxysterols receptor LXR-beta: MSSPTTSSLDTPLPGNGPPQPGAPSSSPTVKEEGPEPWPGGPDPDVPGTDEASSACSTDWVIPDPEEEPERKRKKGPAPKMLGHELCRVCGDKASGFHYNVLSCEGCKGFFRRSVVRGGARRYACRGGGTCQMDAFMRRKCQQCRLRKCKEAGMREQCVLSEEQIRKKKIRKQQQESQSQSQSPVGPQGSSSSASGPGASPGGSEAGSQGSGEGEGVQLTAAQELMIQQLVAAQLQCNKRSFSDQPKVTPWPLGADPQSRDARQQRFAHFTELAIISVQEIVDFAKQVPGFLQLGREDQIALLKASTIEIMLLETARRYNHETECITFLKDFTYSKDDFHRAGLQVEFINPIFEFSRAMRRLGLDDAEYALLIAINIFSADRPNVQEPGRVEALQQPYVEALLSYTRIKRPQDQLRFPRMLMKLVSLRTLSSVHSEQVFALRLQDKKLPPLLSEIWDVHE
B4: RVRa: Rev-Erb α (NR1D1), cDNA driver (protein, UniProt P20393 1-614, looked up)
Nuclear receptor subfamily 1 …: MTTLDSNNNTGGVITYIGSSGSSPSRTSPESLYSDNSNGSFQSLTQGCPTYFPPSPTGSLTQDPARSFGSIPPSLSDDGSPSSSSSSSSSSSSFYNGSPPGSLQVAMEDSSRVSPSKSTSNITKLNGMVLLCKVCGDVASGFHYGVHACEGCKGFFRRSIQQNIQYKRCLKNENCSIVRINRNRCQQCRFKKCLSVGMSRDAVRFGRIPKREKQRMLAEMQSAMNLANNQLSSQCPLETSPTQHPTPGPMGPSPPPAPVPSPLVGFSQFPQQLTPPRSPSPEPTVEDVISQVARAHREIFTYAHDKLGSSPGNFNANHASGSPPATTPHRWENQGCPPAPNDNNTLAAQRHNEALNGLRQAPSSYPPTWPPGPAHHSCHQSNSNGHRLCPTHVYAAPEGKAPANSPRQGNSKNVLLACPMNMYPHGRSGRTVQEIWEDFSMSFTPAVREVVEFAKHIPGFRDLSQHDQVTLLKAGTFEVLMVRFASLFNVKDQTVMFLSRTTYSLQELGAMGMGDLLSAMFDFSEKLNSLALTEEELGLFTAVVLVSADRSGMENSASVEQLQETLLRALRALVLKNRPLETSRFTKLLLKLPDLRTLNNMHSEKLLSFRVDAQ
B5: RORg: RAR-related Orphan Receptor γ (NR1F3), cDNA driver (protein, UniProt P51449 1-518, looked up)
Nuclear receptor ROR-gamma: MDRAPQRQHRASRELLAAKKTHTSQIEVIPCKICGDKSSGIHYGVITCEGCKGFFRRSQRCNAAYSCTRQQNCPIDRTSRNRCQHCRLQKCLALGMSRDAVKFGRMSKKQRDSLHAEVQKQLQQRQQQQQEPVVKTPPAGAQGADTLTYTLGLPDGQLPLGSSPDLPEASACPPGLLKASGSGPSYSNNLAKAGLNGASCHLEYSPERGKAEGRESFYSTGSQLTPDRCGLRFEEHRHPGLGELGQGPDSYGSPSFRSTPEAPYASLTEIEHLVQSVCKSYRETCQLRLEDLLRQRSNIFSREEVTGYQRKSMWEMWERCAHHLTEAIQYVVEFAKRLSGFMELCQNDQIVLLKAGAMEVVLVRMCRAYNADNRTVFFEGKYGGMELFRALGCSELISSIFDFSHSLSALHFSEDEIALYTALVLINAHRPGLQEKRKVEQLQYNLELAFHHHLCKTHRQSILAKLPPKGKLRSLCSQHVERLQIFQHLHPIVVQAAFPPLYKELFSTETESPVGLSK

System: hMyoD promoter
Experiment: NHR-promoter luciferase screen, hMyoD promoter
Type: cell-based, human
Conditions: MyoD promoter reporter; co-transfected HR, without or with its ligand
Method: (§1) The use, feasibility, and reproducibility of the functional NHR-promoter screen in a 48-well format have been tested validated. Briefly, there were co-expressed 50 ng of each NHR/NHR homodimer or NHR/RXR heterodimer with 100 ng promoter/luciferase construct and 50 ng of LacZ (as a control for transfection efficiency) in CV-1 cells using Fugene HD (Roche) as a transfection reagent (alternatively or additionally, a CMV-YFP construct can be used as a transfection control). Each of the nuclear hormone receptors that were used in these experiments was cloned into a pcDNA3.1 vector and comprised a C-terminally linked V5H6 tag. Twenty-four hours after transfection, appropriate ligands were added, where applicable, (see Table 5 for various ligands and concentrations and after 48 hrs, samples were assayed for luciferase and LacZ activity. To measure for luciferase activity 15 ul of sample was added to 30 ul of luciferase buffer (20 mM tricine, 1.07 mM MgCarbonate, 2.67 mM MgSulfate, 0.1 mM Naz-EDTA, 5 mM DTT, 5 mM ATP, 0.15 mg/ml CoA, 0.5 mM Luciferin), mixed briefly, and run in a Perkin Elmer Victor 5 luminometer. Thus, the functional NHR-promoter screen was used to observe the transcriptional activity of 29 promoters from various physiological pathways including inflammation, lipid and sugar metabolism, cholesterol transport, xenobiotic metabolism, and circadian rhythm.
(§2) The promoters that facilitate transcription of the indicated gene products that were tested using the protocols described herein are listed in the first row of the table. The nuclear hormone receptors and, where applicable, ligands that were assayed for their transcriptional effects on the promoters are listed in the first column of the table. The data represent the luciferase activity of each sample normalized to both the lacZ activity of that sample and to a control, e.g., no NHR or ligand, as customary in the art. As described previously, these normalizations allow the transcriptional activity of each reporter cell to be compared to other samples.
(§3) Tables 7-40 show the transcriptional effects of the hormone receptors, and, where applicable, ligands (orphan receptors are screened without ligand), on each individual promoter. […] The control data of each table are shown in their last rows.

Molecule | Luc. act., normalized to lacZ
B1 | 47.3
B2 | 65.5
B3 | 54.6
B4 | 75.0
B5 | 86.5

Same assay, conditions: MyoD promoter reporter; co-transfected HR, without or with its ligand; relative to control

Molecule | Normalized Luc. act., normalized to control
B1 | 0.7
B2 | 1.0
B3 | 0.9
B4 | 1.2
B5 | 1.4

Same assay, conditions: hMyoD promoter-luciferase, CV-1 cells, NHR +/- ligand, control = 1.00

Molecule | luciferase activity normalized to lacZ activity and to a control, hMyoD
B1 | 0.75
B2 | 1.03
B3 | 0.86
B4 | 1.18
B5 | 1.36

System: mAgrp promoter
Experiment: NHR-promoter luciferase screen, mAgrp promoter
Type: cell-based, mouse
Conditions: Table 6d; luciferase activity relative to control (control = 1.00)
Method: as §1, §2, §3

Molecule | Results of assays of transcription factor (+/- ligand) with mAgrp
B1 | 1.65
B2 | 0.91
B3 | 0.78
B4 | 1.21
B5 | 2.51

Same assay, conditions: mAgrp promoter; HR component with or without ligand

Molecule | Luc. act., normalized to lacZ
B1 | 65.6
B2 | 36.1
B3 | 31.0
B4 | 47.9
B5 | 99.6

Same assay, conditions: mAgrp promoter; HR component with or without ligand; relative to control

Molecule | Normalized Luc. act., normalized to control
B1 | 1.7
B2 | 0.9
B3 | 0.8
B4 | 1.2
B5 | 2.5

System: mPOMC promoter
Experiment: NHR-promoter luciferase screen, mPOMC promoter
Type: cell-based, mouse
Conditions: Table 6d; luciferase activity relative to control (control = 1.00)
Method: as §1, §2, §3

Molecule | Results of assays of transcription factor (+/- ligand) with mPOMC
B1 | 2.08
B2 | 0.90
B3 | 0.88
B4 | 1.13
B5 | 1.30

Same assay, conditions: mPOMC promoter; HR component with or without ligand

Molecule | Luc. act., normalized to lacZ
B1 | 143.4
B2 | 62.0
B3 | 60.8
B4 | 77.9
B5 | 89.5

Same assay, conditions: mPOMC promoter; HR component with or without ligand; relative to control

Molecule | Normalized Luc. act., normalized to control
B1 | 2.1
B2 | 0.9
B3 | 0.9
B4 | 1.1
B5 | 1.3

System: hIRF7 promoter
Experiment: NHR-promoter luciferase screen, hIRF7 promoter
Type: cell-based, human
Conditions: IRF7 promoter reporter; HR without or with its ligand; relative to control
Method: as §1, §2, §3

Molecule | Normalized Luc. act., normalized to control
B1 | 1.5
B2 | 1.4
B3 | 1.7
B4 | 1.2
B5 | 1.7

Same assay, conditions: IRF7 promoter reporter; hormone receptor (HR) without or with its ligand

Molecule | Luc. act., normalized to lacZ
B1 | 39.9
B2 | 36.0
B3 | 45.1
B4 | 32.6
B5 | 44.4

Same assay, conditions: transcription factor +/- ligand; control = 1.00

Molecule | hIRF7 promoter reporter activity
B1 | 1.51
B2 | 1.36
B3 | 1.71
B4 | 1.24
B5 | 1.69

System: mAdiponectin promoter
Experiment: NHR-promoter luciferase screen, mAdiponectin promoter
Type: cell-based, mouse
Conditions: Adiponectin; HR component without or with its ligand
Method: as §1, §2, §3

Molecule | Luc. act., normalized to lacZ | Normalized Luc. act., normalized to control
B1 | 80.0 | 1.3
B2 | 25.4 | 0.4
B3 | 61.7 | 1.0
B4 | 55.2 | 0.9
B5 | 133.3 | 2.1

Same assay, conditions: transcription factor +/- ligand; control = 1.00

Molecule | mAdiponectin promoter reporter activity
B1 | 1.27
B2 | 0.40
B3 | 0.98
B4 | 0.88
B5 | 2.12
